# In the nanobody polyreactivity screen of Harvey et al. (2022):
# Experiment: yeast display, Sf9 membrane polyspecificity reagent, FACS + sequencing; frameworks hold sequencing errors
# Outline: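 Nanobodies from a synthetic yeast display library (Saccharomyces cerevisiae BJ5465), induced 36–48 hours with galactose, were stained 1 hour at 4 °C with 10% biotinylated, detergent-solubilized Sf9 membrane reagent, enriched on streptavidin microbeads, then FACS-sorted. Anti-HA (expression) and streptavidin (reagent binding) fluorescence set low and high (top ~1%) gates. Polyreactivity labels come from the gate of origin. Genes were colony-PCR amplified, MiSeq 2 × 250 sequenced and filtered by CDR length.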
sequence,measurement,value
QVQLVESGGGLVQAGGSLRLSCAASGSTSDINAMGWYRQAPGKERELVAVITFSGGSTNYADSVKGRFTISRDNAKNTVYLQMHSLKPEDTAVYYCNADTLTTTRRFNPYDYWGQGTQVTVSS,polyreactivity (PSR sort gate),low polyreactivity
QVQLVESGGGLVQAGGSLRLSCAASGSTSDINAMGWYRQARGKEWQLVAVITDSSNTDYADSVKGRFTISRDNAKNTVYLEMNSLKPEETAVYYCAADRDEPDPYDYWGPGTQVTVSS,polyreactivity (PSR sort gate),low polyreactivity
QVQLVESGGGLVQAGGSLRLSCAASGSTSGPYAMGWYRTAPGKERELVATISWIGDRTYYADSVKGRFTISRDNAKNTIYLQMNSLKPEDTAVYYCNDDYRGYANLEGDYWGQGTQVTVSS,polyreactivity (PSR sort gate),low polyreactivity
QVQLVESGGGLVQAGGSLRLSCAASGSTSIEYGMGWYRQAPGKERELVATISIGSSTNYADSVKGRFTISRDNAKNTVYLQMNSLKPEDTAVYYCAADAYLDYYTGYYYQEYDSWGQGTQVTVSS,polyreactivity (PSR sort gate),low polyreactivity
QVQLVESGGGLVQAGGSLRLSCAASGSTSILYAMGWYRQAPGKERELVAAISRSGGSTYYADSVKGRFTISRDNAKNTVYLQMNSLKPEDTAVYYCAAQWVYQYGFNYWGQGTQVTVSS,polyreactivity (PSR sort gate),high polyreactivity
QVQLVESGGGLVQAGGSLRLSCAASGSTSKNYAMGWYRQAPGKERELVAAITRGTSTNYADSVKGRFTISRDNAKNTVYLQMNSLKPEDTAVYYCNVERHRVWDYQWREEDDYWGQGTQVTVSS,polyreactivity (PSR sort gate),low polyreactivity
QVQLVESGGGLVQAGGSLRLSCAASGSTSPAYAMGWYRQAPGKERELVAVITGSGASTYYADSVKGRFTISRDNAKNTVYLQMNSLKPEDTAVYYCAADVGFGVVFYDYWGQGTQVTVSS,polyreactivity (PSR sort gate),low polyreactivity
QVQLVESGGGLVQAGGSLRLSCAASGSTSQINAMGWYRQAPGKERELVAAITWSTGTTYYADSVKGRFTISRDNAKNTVYLQMTSLKPEDTAVYYCAAERAILSSDKQSLWRFDYWGQGTQVTVSS,polyreactivity (PSR sort gate),low polyreactivity
QVQLVESGGGLVQAGGSLRLSCAASGSTSQLYAMGRYRQAPGKERELVAAITVSGDSTYYADSVKGRFTISRDNAKNTVYLQMNSLKPEDTAVYYCAADVMVQTVPGGYDDWGQGTQVTVSS,polyreactivity (PSR sort gate),low polyreactivity
QVQLVESGGGLVQAGGSLRLSCAASGSTSQRYSMGWYRQAPAKEREVVAGITTSGGRTYYADSVKGRFTISRDNAKNTVYLQMNSLKPEDTAVYYCAARTQIWKYRGYYSWGQGTQVTVSS,polyreactivity (PSR sort gate),high polyreactivity
QVQLVESGGGLVQAGGSLRLSCAASGSTSRINAMGWYRQAPGKERELVAGIRANGGRTYYADSVKGRFTISRDNAKNTVYLQMNSLKPEDTAVYYCNKRNWPAEDSWGQGTQVTVSS,polyreactivity (PSR sort gate),high polyreactivity
QVQLVESGGGLVQAGGSLRLSCAASGSTSRTYAMGWYRQAPGKERELVAAINSGGTTYYADSVKGRFTISRDNAKNTVYLQMNSLKPEDTAVYYCARRDFWWSRRIFGYWGQGTQVTVSS,polyreactivity (PSR sort gate),high polyreactivity
QVQLVESGGGLVQAGGSLRLSCAASGSTSRYALGWYIQAPGNERELVAAITRSGGTTYYADSVKGRFTISRDNAKNTVYLQMNSLIPEDTAVYYCATSDRQVKYDYWGQGTQVTVSS,polyreactivity (PSR sort gate),low polyreactivity
QVQLVESGGGLVQAGGSLRLSCAASGSTSRYNVMGWYRQAPGKERELVAAISSRGVSTYYADSVKGRFTISRDNAKKTVYLQMNSLKPEDTAVYYCAARYGGPSHYGYWGQGTQVTVSS,polyreactivity (PSR sort gate),high polyreactivity
QVQLVESGGGLVQAGGSLRLSCAASGSTSSPNAMGWNTQAPGKEREFVAAISRSGGSTYYADSVKGRFTISRDNAKNTVYLQMNSLKPEDSAVYYCAATVTVFYTRYYYWGQGTHVTVSS,polyreactivity (PSR sort gate),high polyreactivity
QVQLVESGGGLVQAGGSLRLSCAASGSTSSSKAMGWYREAPGKERELVATITNGSGTSYADSVKGRFTISRDNAKNTVYLQMNSLKPEDTAVYYCYVSSLNSYTSGTTYWGLDYWGQGTQVTVSS,polyreactivity (PSR sort gate),low polyreactivity
QVQLVESGGGLVQAGGSLRLSCAASGSTSSVYDMGWYRQEPGKERELVAGIDYSAGSTYYADSVKGRFTISRDNAKNTVYLQMNSLKPEDTAVYYCDADAAYYSGYDYWGQGTQVTVSS,polyreactivity (PSR sort gate),low polyreactivity
QVQLVESGGGLVQAGGSLRLSCAASGSTSTGNAMGWYRKAPGKERELVAAITSGGNTYYADSVKGRFTISRDNAKNTVYLQMNSLKPEDTAVYYCAAASPGPWRYDYWGQGTQVTVSS,polyreactivity (PSR sort gate),high polyreactivity
QVQLVESGGGLVQAGGSLRLSCAASGSTSVGNAMGWYRQAPGKERELVAAMSRIGGTTYYADSVKGRFTISRDNAKNTVYLQMNSLKPEDTAVYYCNVLKRYWSGRVDYWGQGTQVTVSS,polyreactivity (PSR sort gate),high polyreactivity
QVQLVESGGGLVQAGGSLRLSCAASGSTSVKYAMGWYRQAPGKERELVAAIRKRGDSTYYADSVKGRFTISRDNAKNTVYLQMNSLKPEDTAVYYCAAQYLRGRGYWGQGTQVTVSS,polyreactivity (PSR sort gate),low polyreactivity
QVQLVESGGGLVQAGGSLRLSCAASGSTSVKYAMGWYRQAPGKERELVAAIRKRGDSTYYADSVKGRFTISRDNAKYSVYLQMNSLKAEDTAVYYCAAQYLRGRGYWGQGTQVTVSS,polyreactivity (PSR sort gate),low polyreactivity
QVQLVESGGGLVQAGGSLRLSCAASGSTSVPYTMGWYRQAPGKERELVAAISSSGGTTNYAVSVKGRFTISRDNAKNTVSLQMNSLKPEDTAVYYCAAEYYQWVAYSWNEMYYWGQGTQVTVSS,polyreactivity (PSR sort gate),low polyreactivity
QVQLVESGGGLVQAGGSLRLSCAASGSTSVQYAMGWYRQAPGKERELVAAIDRSGGSTSYADSVKGRFTISRDNAKNTVYLQMNTLKPEDTAVYYCNADPVRSTYSYDYWGQGTQVTVSS,polyreactivity (PSR sort gate),low polyreactivity
QVQLVESGGGLVQAGGSLRLSCAASGSTSVTNAMGWYRQAPGKEREFFATINYSGTSTYYADSVKGRFTISRDNAKNTVYLQMNSLNPEDTAVYYCYAHDFGFYRFSLPGYDYWGQGTQVTVSS,polyreactivity (PSR sort gate),low polyreactivity
QVQLVESGGGLVQAGGSLRLSCAASGSTSYFNVMGWYRQAPGKERELVAAISWSGGSTYADSVKGRFTISRDNAKNTVYLQMNSLKPEDTAVYYCNKDYGYVQLRFYGPGYYWGQGTQVTVSS,polyreactivity (PSR sort gate),low polyreactivity
QVQLVESGGGLVQAGGSLRLSCAASGSTSYGYAMGWYRQAPGKERELVAAISRTDRTYYADSVKGRFTISRDNAKNTVYLQMNSLKPEDTAVYYCTAVLVGRAEYYYWGQGTQVTVSS,polyreactivity (PSR sort gate),high polyreactivity
QVQLVESGGGLVQAGGSLRLSCAASGSTSYIYAMGWYRQAPGKERELVAAISKSGGRTYYADSVKGRFTISRDNAKNTVYLQMNSLKPEDTAVYYCAAVPGRTAEDYGEDYWGQGTQVTVSS,polyreactivity (PSR sort gate),high polyreactivity
QVQLVESGGGLVQAGGSLRLSCAASGSTSYNMGWYRQAPGKERELVAAISYRGGRTYYADSVKGRFTISRDNAKNTVYLQMNSLKPEDTAVYYCAKGIFDTFDSWGQGTQVTVSS,polyreactivity (PSR sort gate),low polyreactivity
QVQLVESGGGLVQAGGSLRLSCAASGSTVDWNAMGWYRQAPGKERELVAGITFRSGSTYYADSVKGRFTISRDNAKNTVYLQMNSLKPEDTAVYYCNVKLYYYYFRMYYWGQGTQVTVSS,polyreactivity (PSR sort gate),low polyreactivity
QVQLVESGGGLVQAGGSLRLSCAASGSTVEYNAMGWYRQAPGKERELVASSTNYADSVKGRFTISRDNAKNTVYLQMNSLKPEDTAVYYCAASSLPHDSYRHSYLYEYWGQGTQVTVSS,polyreactivity (PSR sort gate),low polyreactivity
QVQLVESGGGLVQAGGSLRLSCAASGSTVEYYAMGWYRQAPGKERELFAAISSGPSTTYADSVKGRFTISRDNAKNTVYLQMYSLKREDTAVYYCARLDGTTQALFGYDYWGQGTQVTVSS,polyreactivity (PSR sort gate),low polyreactivity
QVQLVESGGGLVQAGGSLRLSCAASGSTVGYYDMGWYRQAPGKERELVATITKSGGTTRYADSVKGRFTISRDNAKNTVYLQMNSLKPEDTAVYYCAADGTWRLLDDYWGQGTQVTVSS,polyreactivity (PSR sort gate),low polyreactivity
QVQLVESGGGLVQAGGSLRLSCAASGSTVSPNAMGWDRPAPGKERELVAAITYRGANTYYADSVKGRFTISRDNAKNTVYLQMNSLKPEDTAVYYCAATYGSWISLRFYWGQGTQVTVSS,polyreactivity (PSR sort gate),low polyreactivity
QVQLVESGGGLVQAGGSLRLSCAASGSTVVYYAMGWYRQAPGKERELVAAISSSGGTTYYADSVKGRFTISRDNAKNRVYLQMKSLKPEDTAVYYCAAPYASRGNEYWGQGTQVTVSS,polyreactivity (PSR sort gate),high polyreactivity
QVQLVESGGGLVQAGGSLRLSCAASGSTWWYDMGWSRQAPGKERELVASISSGDSTNYADSVKGRFTISRDNAKNTVYLQMNSLKPEDTAVYYCAADKNSRPAGKGSTGYGYDYWGQGTQVNVSS,polyreactivity (PSR sort gate),low polyreactivity
QVQLVESGGGLVQAGGSLRLSCAASGSTYATNAMRWYRQAPGKERELVATISWSGGSTYYADSVKGRFTISRDNAKNTVYLQMNSLKPEDTAVYYCAADWSNLGAYDYWGQGTQVTVSS,polyreactivity (PSR sort gate),low polyreactivity
QVQLVESGGGLVQAGGSLRLSCAASGSTYFRNAMGWYRQAPGKERELVAAISSSCGSTYYADSVKGRFTISRDNAKNTVYLQMTSLKPEDTAVYYCNADWYYAGYGYWGQGTQVTVSS,polyreactivity (PSR sort gate),low polyreactivity
QVQLVESGGGLVQAGGSLRLSCAASGSTYGIYAMGWYRQAPGKERELVAAITLRTDSTYYADSVKGRFTISRDNAKNTVYLQMNSLKPEVTAVYYCARRYRYGYDYWGQGTQVTVSS,polyreactivity (PSR sort gate),low polyreactivity
QVQLVESGGGLVQAGGSLRLSCAASGSTYHYAMGWYRQAPGKERELVASITWRGDTTYYADSVKGRFTISRDNAKNTVYLQMNSLKPEDTAVYYCAARKFFRQGGKRYDYWGQGTQVTVSS,polyreactivity (PSR sort gate),high polyreactivity
QVQLVESGGGLVQAGGSLRLSCAASGSTYRGYAMGWYRQAPGKERELVAAISWTGGSTYNADSVKGRYTISRDNAKNTVYLQMNSLKPEDTAVYYCNTYVKDWGGYSYRYRYYYWGQGTQVTVSS,polyreactivity (PSR sort gate),high polyreactivity
QVQLVESGGGLVQAGGSLRLSCAASGSTYRYTMGWYRPAPGKERELVAAITGSAGSTYYADSVKGRFTISRDNAKNTVYLQMHSLKPEDTAVYYCNKVRPRKFWDYYYWGQGTQVTVSS,polyreactivity (PSR sort gate),high polyreactivity
QVQLVESGGGLVQAGGSLRLSCAASGSTYRYYAMGWYRQAHGKERELVAAINSSCGSTYYADSVKGRFTISRDNAKNTVYLQMNSLKPEDTAVYYCATVYAYTGWLTNPREYSRYDYWGQGTQVTVSS,polyreactivity (PSR sort gate),low polyreactivity
QVQLVESGGGLVQAGGSLRLSCAASGSTYVSNAMGWYRQAPGKERELVAAISTSGGTTYYADSVKGRFTISRDNAKNTVYLQMNSLKPEDTAVYYCAADYKAYGRSYDYWGQGTQVTVSS,polyreactivity (PSR sort gate),low polyreactivity
